Reference: patent publication US20240279288A1, “APPLICATION OF PLANT JAZ PROTEINS AND DERIVED POLYPEPTIDES IN PREVENTION AND TREATMENT OF HUMAN AND ANIMAL TUMORS” (ANYANG INSTITUTE OF SINO-COTTON INDUSTRY INNOVATION, priority 2021, published 2024)

Target: uPAR (Homo sapiens, UniProt Q03405)
Experiment: CO-IP experiment with uPAR
Type: binding
Conditions: in vivo
Experimental: Steps of method of CO-IP experiment: Non-denaturing lysate was added to 293T cell culture plate (Pricella, Cat. No.: CL-0005), and the cells were completely lysed at 4° C. The lysate was centrifuged at 12,000 rpm for 10 min and the supernatant was collected. The corresponding antibody was added to the obtained non-denatured protein solution, which was incubated overnight at 4° C. Pierce™ protein A/G magnetic agarose (Thermo Fisher Scientific, Inc.) were washed with lysis buffer, followed by addition pre-treated beads to the cell lysate, and incubation at room temperature for 2 hours. […] The band of interest was detected by Western blotting.
In order to explore how GhJAZ1 enters cancer cells, we cloned the genes of most tumor surface receptors, including uPAR (NCBI database accession number of NM_002659.4), CCK1R (NP_000721.1), CCK2R (NP_001350481.1), HER2 (NP_004439.2), GRPR (NP_005305.1), MUC1 (NP_001358649.1), VEGFR1 (NP_002010.2), Insulin receptor (NM_000208.4), NTR (XM_011528827.2), PSMA (XM_017017432.1), TFR1 (NM_001128148.3), TFR2 (NM_003227.4), PEPT1 (NM_005073.4), APN (NM_001150.3). […] We detected the interaction of GhJAZ1 with uPA (as the ligand of uPAR, NCBI database accession number of NP_002649.2) and uPAR by yeast two hybrid (the steps of the experiment as Example 3). […]

uPAR, sequence (Q03405 23-305): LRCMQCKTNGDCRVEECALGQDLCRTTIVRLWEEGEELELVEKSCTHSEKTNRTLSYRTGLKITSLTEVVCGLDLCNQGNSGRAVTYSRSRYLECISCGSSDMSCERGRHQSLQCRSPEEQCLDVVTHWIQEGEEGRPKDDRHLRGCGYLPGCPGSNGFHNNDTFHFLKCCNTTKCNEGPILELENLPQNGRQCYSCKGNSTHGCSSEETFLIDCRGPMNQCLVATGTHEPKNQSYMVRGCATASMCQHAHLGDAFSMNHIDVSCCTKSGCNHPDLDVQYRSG

B1: GhJAZ1: cotton JAZ1 protein, gene number Gh_A05G0260, sequence SEQ ID No. 4; prokaryotically expressed with His tag, about 30 KD (protein)
chain: MSSCSESTAMKPARSPEKPSFAQTCNLLSQYLKEKGSFGDLSLGMTCNVEANGTPVVPPPTMNLFPLNDKSDDVCGRNGGNPKNLTSMDLFPQQAGLASKDDSPNKLEPQTAPMTIFYGGQVIVFNDFPANKAKEIMLLASNSSSQSNNSFNPIPFTSSIARSPIESSIGVPPTSKPVHPAQRAVPGDLPIARRASLHRFLEKRKDRITAKAPYQINNSAAAPSLSGDNKSWLGLAAQSP
modifications: His tag
notes: prokaryotically expressed with His tag, about 30 KD
- interaction with uPAR: interacts
